Test results reported in the DeepSol protein solubility set.

assay: soluble on expression in E. coli; label from the status in PepcDB or PDB records

Sequence | soluble on expression in E. coli
MFDLAERLSSNKSNESKLSHKLKTMLFYQTEECRSLVNESFRFDGKDEPKCVKNRDEEFRQIDLLNPPEVVIIELNASQDVVQDAQRLAHLLPSQVSVVIVGSEDAISTIRLLKEMGFYYLFWPVSKQECSDFMKHVLDNHEQHRGLMANRKSKRVAMVGVKGGVGTSLISSEVSRMLSFDKGVSTLLVDHNYHGGNLDIFMGLKQHQKRIVQKGTLISNIDGTYALGLIRKITPMLSMLAIDSDELNAQELKEYTLAVQEQALKNSSVMIEDHAHLIRNEDDIIKLLQQVDVLVLVFDATVSSLRDYNRLNQLVKKNNLDNQTRVISVLNSSRPSNSGSVSAEEIEKYSGQRATISIPYDDKAPQYVLEGLQIVKTKSAMALPLMNLVALILGEEPKQESRSFLSFFKKKG | not soluble
MFDSIRETIDYAVENNMSFADIMVKEEMELSGKSRDEVRAQMKQNLDVMRDAVIKGTTGDGVESVTGYTGHDAAKLRDYNETHHALSGYEMIDAVKGAIATNEVNAAMGIICATPTAGSSGTIPGALFKLEKTHDLTEEQMIDFLFTSALFGRVVANNASVAGATGGCQAEVGSASAMAAAAAVAIFGGSPEASGHAMALAISNLLGLVCDPVAGLVEIPCVMRNAIGSGNALISADLALAGIESRIPVDEVIEAMDKVGRNLPASLRETGLGGLAGTPTGEAIKRKIFGTAEDMVKNN | not soluble
MFERYQAGEQAVLVHLDFPDESSREDLSEFKMLVSSAGVQALTVVTGKRNTPHPRFFVGSGKAEEIRDAVHLVGANVVLFNHSLTPSQEKNIEALCECRVVDRTTLILDIFAQRARTHEGKLQVELAQLRHMSSRLIRGWTHLERQKGGIGLRGPGETQLETDRRLLRERMVNIRKRLGKVEVQRQQGRRARTRAELPTLSLVGYTNAGKSTLFNTLTQSDVYAADQLFATLDPTLRKIDLFGVGRVILADTVGFIRHLPHDLVAAFKATLTETREAELLLHVVDISDDRRSENIEQVEYVLKEIEANDVPQLIICNKIDNLDDIEPRIDRDDQGMPIRVWLSAQANIGTELLFTALAERLDIQVVNHQLSIPPSAGKLRGELYKLNCVTSETYDEQGHCHLEVNMPSREWERLISTKYSELVDYIEHLEHHHHHH | not soluble
MFFAIILLVHTILLPSTLLYQCATAKRPANQRKSQRSTKSRKSSRRSRRRNGRSRKSSRSGKSSRSSKSGRSSKSSNSTKTTGSKSSKSSRSQRSNKSNKMVTNPKGFSDRKIRAAILADQKAAADAVKSQKLSSNNSSEKQLNAHNDNKISYVNVRVIPHELIFPPIGGMKHVRVKNSTGKPIAYMAKCSDNILFRINPVYGIIDTDRDAQINILRENGAAKHDKLVIVTTVHHDANKTAQHTFSQLNQGIENPNYNVNVVPLLTQ | soluble
MFFDDTYLDYKARVSYSLFCAKDFNETAAFIKANRILMTSTELAAYMLKPENYKYAIIARIKNSMVGIVLFTDFESEVFINHLYVSPIHRFKGIGSNLLKELKAFMGQRTVSYIDTSNNYMPWMEVLDVSKKAAVINQLGSFYKCSK | not soluble
MFFRSKKTHFLEVDKFWTPEKIVRSSEVKRINKNTEISTQESTSTSTEYQFATLEDFQNAMAEKDQNIKKLKEEVEKLIDEQEDEIILAEMQFEIFQIKAETEARRLKKLLIMRNEDFSILKTKYEDLQKQFYDLSPYPVNGYGGILIGDETPKQEKLMDQLLDKLKVLNDGDYYDIFHLLETIDKIIVTFSLYFKDPILITKKMEDNKQIIQKLEDEVDYLTKNLESLNPSQLVTSLENKDDYLLVTVEFQKRKNILFSELKKKNEEIKMLQESFNVYQKDSIEKVMEKFLELQHQNLTVFSVDDTNSISTELNNDRNVAKNDKSEGVESLMLENFNNSLKIALNSVKREISKQNVTIKTDEDMIKDMKKTIDSNENMIKMLADELSWKTKDCQVKVSALENQIFDKNDEIVKLKSHVSTESGNSPKLERNVRELTLKISSETSSQGTSRTYPHLEQEILTFHSEKISDPSEEANQEVREFPLEQTLEKLKLEQTESLVAILEQPGGLKTMRNDPQWLQVVDHFCDYVRKIEKLEENVKEEQMNTEMIMKERTREITELYYQKRVLEKKISEQFKEIQQVKSEISRVYEANIQEIQKSFDIKLKLKDQIIGELEAVDEMSSNHTELSDGWSDLDIVQNTEELQ | not soluble
MFGISFSELLLVGLVALLVLGPERLPGAARTAGLWIGRLKRSFNTIKQEVEREIGADEIRRQLHNEHILSMEREAQKLLAPLTGQNPPQETPPPAAESPAPSVPTPPPTSTPAVPPADAAAPPAVAASTPPSPPSETPRNPLEHHHHHH | not soluble
MFGMSVFHSVLERLKAEQAEELTNEARGGWRGTVIGAAPGFIAESSAHAWASRGAVEQAYRALAADERSEPFSMPDYLTRTSLAEVASELALGEAETALTLAAKRRRFAAANHPDRLPVEARVNATLRMKLANMLIDEALRRIEKPTVTG | not soluble
MFHLVDFQVTIAEILIIIMRTFRIAIWNLDVIISSIVRQLFKPLTKKNYSELDDEEPMELDYP | soluble
MFISVVIPTYDRQPILEKCLRALEAQQLSASTVINEYEIVLVDDGSTDGTLDWLATHKEEFPHVRWFEQDHAGPAAARNLGVEKARGDIIIFIDSDLVVLDNFLQAHADALLQGQEKLGSDRFFTYGAVINTCNFDNPTAEPYKITDFSAAFFATGNVAIPKHWLEQAGLFDTGFQLYGWEDLELGVRLKNLGLQLIKCPAAVGYHWHPPFNLEQVPNLIEKEIQRGRMGVLFYKKHPTWEVRMMIQMTWLHRLLWGILSLNGALNENTMAPLLQWLIKSGKPQLALEIARIFLNWYNVKGVYQAYSQMQKVSLEHHHHHH | soluble
MFKRVLIANRGEIAVRAIRACRELGLKTVAIYSEADKNSLHVELADEAICIGPPDPSKSYLDIPRIMSALEVSKADAVYPGYGFLSENPKFAEIVEKSGAKFIGPRSEVLAKIGDKVLAKKVAKEVGLPLVPGSDEPLEFSEAVKLASKIGYPVVIKAAAGGGGRGIRIIRDEKELREKFPLAKKEAESAFGDGRLYIEKYVINPKHIEFQVIADEHGNVYVLGERECSIQRRHQKLIEEAPSVSVSEEKRKEISEKVAEFCKRLGYTSAGTVEFLMDEEGNFYFMEMNGRIQVEHPVTEMVTGVDIVKLQLIAAMGEEIKLEKVETNGFAIEFRINAEDPVTFIPSPGQVEKLILPGGPGVRVDTHLYQGYTVPPYYDSLLAKIIVWGNTRQEAIARGKRALGELKIEGKGLKVNTEFHLRVLDQKEFIEGKHDITFVERIMV | soluble
MFLNSLDLPGQPENSRIVVAMSGGVDSSVVAGLLKKEGYDVIGITLQLYDHGAATHRVGACCAGQDIEDARCVAETLGIPHYVLDYEERFREAVIDPFAASYAHGETPVPCIACNQTVKFADLLATARELDADALATGHYIRSRSHGAHRALFRPLDSDRDQSYFLFATTQEQIDYLRFPLGDLPKARVREMATEMGFVVANKHDSQDICFVPQGKYSDIITKLRPEAVNPGVIVHVDGQVLGKHSGIVHYTVGQRRGIGVATGEALYVVYLDVENARVIVGPREMLETHKLFLRDVNWLGDERLDNFPPDGIEMAVKVRSTRPPHLARLHYQEGVFSVDFLECENSVAPGQACVFYDGNSDGARVLGGGFVTHSERAAETEMMLKRVLCNLETTSAVASEFKTKVSYT | not soluble
MFLTKVSLLDHPESLPGYLSSLAIVEYLHEQPLEFRAPITVITGENGVGKSTLVEALAVGMRLNPSGGSRHANFGREGDIVSSLHQSLKLVRRENPRDAFFFRGETMYNVASYYEELMGEKNMHDLHKMSHGESVFAVIDRRFNNQGFFVLDEPEAGLSMLRQLELLGKLGNLARGGAQIIMATHSPILLAIPGAEILEITSSGVAKVNFEDAEAVRAAREFVADPRGTAAFLTAEEDHQ | soluble
MFPIGEQPRILKDLAGINEDVQELAISGKTKNIELLGELKIRDLWIFTVNQTQFDKIMEYVNPEILYIDEMRVENLSKLQKMSNLRRLYLGWNPKNTDLWDLSYNNNLSYLLIQAFSKLEDLSPIKDGKKLEGLFLGGAIMKTLNVKTLDPIGDLVELNELTLMNIKVQDRSLEPLMNLKRLKKLNVSNQFPMEEYAKLSVVLQNTECEFFKPYVRMESTEGKDIMMIGRKRPFLNSKIDAEKIRKYEQEFKTVQEEFRDGMK | not soluble
MFPLFPNPQTRRTMSVLSEQVDGRPPQPPSGRRGKRWLRAIAAGALLAAGGGASTQPVAQQAPQSHARKVKVLIISMFAPEAQPWIDKLGLTQAVPVPGLSIDYPSVHCNASDVCQLTTGMGKANAASSVSALIHSGQFDLSRAYFLVAGIAGIDPSQGTLGTAAWARYLVDSDLAWEIDAREVPADWPNGFIGINTQGPGQKPPLNYKTEIFRVNEALLQKALALSKGAVLDDNATARAYRANYPSAPANQPPAVVQCDTAAGNTYWHGALLGQREAAWVKLLTDGQGTYCTTQQEDNATFEALTRGSKAGLLDLQRVAVLRTASNFDRPYPGQTPYDSLVGSNSGGFVPSLNNLYLAGGPLVNDIVTRWSVWKHGVPSPLEHHHHHH | not soluble
MFPSFLRRTAAKNGSYANEISSSIIINRPAERLFDLWRKPETLPILMGHFASIEILNHTDSNWRINTPIGSLIEWQARIIDEKPGEYIHWRSLEGARVPNEGRLSFQPAASEAGTAVTLTIRYNPPGGLIGKKIGQMFDMFSRDMLTKTLYRFKKLAEDERVLEHHHHHH | not soluble
MFRMLNSSFEDDPFFSESILAHRENMRQMIRSFSEPFGRDLLSISDGRGRAHNRRGHNDGEDSLTHTDVSSFQTMDQMVSNMRNYMQKLERNFGQLSVDPNGHSFCSSSVMTYSKIGDEPPKVFQASTQTRRAPGGIKETRKAMRDSDSGLEKMAIGHHIHDRAHVIKKSKNKKTGDEEVNQEFINMNESDAHAFDEEWQSEVLKYKPGRHNLGNTRMRSVGHENPGSRELKRREKPQQSPAIEHGRRSNVLGDKLHIKGSSVKSNKKLEHHHHHH | soluble
MFRRIFDAFNFMGSDEESTAAPVDQEGQEQLIDEDGWVNFNHPTESGDSDEFAFIENPEILEMGDETTIEVEMRTTPCPEVEAIKRREEYNLAKAKTAFRNHLESVMFADPDSGKDVRTFKSTHGSGRSVPTASGSIRRLNTQSQRSKKSSGKSNDRKTHRVSDLQLADA | not soluble
MFSAKKLSPADKLKNISSMLEEIVEDTTVPRNIRAAADNAKNALHNEEQELIVRSATAIQYLDDISEDPNMPIHTRTQIWGIVSELETIK | soluble
MFSEKFFTASFGPDDEQPAIKAAANNAAPIFHLFILEFLLFKYQLLSKDSEYPYLLIRAGDNNRPKKAERRDKASKMWSRNQEKHGSKKSEKSNQNKNFYVREFFSFGASSKKFPNHVFRDVF | not soluble
MFSGHQLKTARLSKGITQSELGRLLHVNKMTISNWEKGKNIPNEKHLNALLHLFNVTSDYFDPNYRLLTPYNQLTISNKEKVIGYSERLLNHQIDKKSKDLIDKPSQLYAYRVYESLSAGTGYSYFGDGNFDVVFYDEQLEYDFASWVFGDSMEPTYLNGEVVLIKQNSFDYDGAIYAVEWDGQTYIKKVFREDEGLRLVSLNKKYSDKFAPYSEEPRIIGKIIANFRPLEI | not soluble
MFSIQQPLLVFSDLDGTLLDSHSYDWQPAAPWLTRLREANVPVILCSSKTSAEMLYLQKTLGLQGLPLIAENGAVIQLAEQWQEIDGFPRIISGISHGEISLVLNTLREKEHFKFTTFDDVDDATIAEWTGLSRSQAALTQLHEASVTLIWRDSDERMAQFTARLNELGLQFMQGARFWHVLDASAGKDQAANWIIATYQQLSGKRPTTLGLGDGPNDAPLLEVMDYAVIVKGLNREGVHLHDEDPARVWRTQREGPEGWREGLDHFFSAR | soluble
MFSKTVVVLLMVVPAISLAQPASPLVLKKSHGAFCHLCEDLIKDGKEAGDVALDVWLDEEIGSRCKDFGVLASECFKELKVAEHDIWEAIDQEIPEDKTCKEAKLC | not soluble
